Assays:
[1] = target: Sulfolobus islandicus type I-D Cas10d large subunit (Se-Met substituted, C-terminal His6) (Sulfolobus islandicus); assay: crystal structure; Se-Met Cas10d and AcrID1 mixed 1:2 (Cas10d:AcrID1), 75 °C for 1 min, complex isolated on Superdex 200 (30 mM Hepes-NaOH pH 7.5, 150 mM NaCl, 5 mM β-ME); crystals in 0.1 M Hepes pH 7.5, 4% PEG 8000, 5% ethylene glycol, 19 °C; SAD, 3.5 Å
[2] = target: Sulfolobus islandicus rod-shaped virus 3 (SIRV3) anti-CRISPR protein AcrID1 (C-terminal His6) (Sulfolobus islandicus rod-shaped virus 3 (SIRV3)); assay: as above

For “Sulfolobus islandicus rod-shaped virus 3 (SIRV3) anti-CRISPR protein AcrID1 (C-terminal His6) (natural protein)”, the stoichiometry N (AcrID1 per Cas10d) [1] was 2 and the stoichiometry N [2] was 2.

— paper PMC7689449
